Experimental data from paper PMC8764063.

Molecular target: T1, IRF3 (human (endogenous in U2OS)), Q14653
T1 chain: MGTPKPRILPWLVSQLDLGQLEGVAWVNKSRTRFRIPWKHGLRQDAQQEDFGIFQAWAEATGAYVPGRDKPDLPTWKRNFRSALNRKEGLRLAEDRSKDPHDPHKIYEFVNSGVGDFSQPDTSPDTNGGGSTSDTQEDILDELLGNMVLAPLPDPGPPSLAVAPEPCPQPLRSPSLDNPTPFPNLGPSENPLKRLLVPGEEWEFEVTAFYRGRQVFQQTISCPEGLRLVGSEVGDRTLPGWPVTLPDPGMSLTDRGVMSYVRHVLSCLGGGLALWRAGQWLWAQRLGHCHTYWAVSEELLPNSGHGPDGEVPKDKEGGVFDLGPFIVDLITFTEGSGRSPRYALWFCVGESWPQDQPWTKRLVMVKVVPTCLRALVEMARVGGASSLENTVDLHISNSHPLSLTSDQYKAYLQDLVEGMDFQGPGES
Assay: native gel or EMSA; native gel and Western blot for IRF3 of lysates (TBS lysis buffer: 20 mM Tris pH 7.5, 150 mM NaCl, 0.5% NP-40) of wild-type, PARP1 D214N or PARP1 KO U2OS cells with or without poly(dA-dT) (5 ug/ml, six hours); monomer to dimer
Conditions: remark: other sources report otherwise

- stoichiometry N: 2
B1: IRF3, Q14653 1-427 (natural protein)
chain: T1 chain
